Measured values taken from article PMC5778602.
Where two headings read alike, the source gives them in different places.

Tests used:
Assay in all cases: ITC
[1] = biological target: T1, CstF-50;CstF-77ΔN;CstF-64RH (Homo sapiens;Homo sapiens;Homo sapiens, UniProt Q05048;Q12996;P33240 1-431;241-717;1-199, |del1-240|)
T1 sequence 1: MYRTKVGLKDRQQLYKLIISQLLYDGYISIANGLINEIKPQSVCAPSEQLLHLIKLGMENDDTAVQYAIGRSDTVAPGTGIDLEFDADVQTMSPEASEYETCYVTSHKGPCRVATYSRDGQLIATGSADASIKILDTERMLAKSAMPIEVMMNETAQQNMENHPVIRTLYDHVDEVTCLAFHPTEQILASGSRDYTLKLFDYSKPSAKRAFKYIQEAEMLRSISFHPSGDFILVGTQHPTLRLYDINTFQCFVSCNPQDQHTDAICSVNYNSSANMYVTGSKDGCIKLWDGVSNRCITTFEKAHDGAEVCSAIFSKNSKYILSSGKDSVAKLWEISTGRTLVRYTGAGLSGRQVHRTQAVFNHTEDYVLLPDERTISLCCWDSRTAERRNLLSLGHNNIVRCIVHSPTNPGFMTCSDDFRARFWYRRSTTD
T1 sequence 2: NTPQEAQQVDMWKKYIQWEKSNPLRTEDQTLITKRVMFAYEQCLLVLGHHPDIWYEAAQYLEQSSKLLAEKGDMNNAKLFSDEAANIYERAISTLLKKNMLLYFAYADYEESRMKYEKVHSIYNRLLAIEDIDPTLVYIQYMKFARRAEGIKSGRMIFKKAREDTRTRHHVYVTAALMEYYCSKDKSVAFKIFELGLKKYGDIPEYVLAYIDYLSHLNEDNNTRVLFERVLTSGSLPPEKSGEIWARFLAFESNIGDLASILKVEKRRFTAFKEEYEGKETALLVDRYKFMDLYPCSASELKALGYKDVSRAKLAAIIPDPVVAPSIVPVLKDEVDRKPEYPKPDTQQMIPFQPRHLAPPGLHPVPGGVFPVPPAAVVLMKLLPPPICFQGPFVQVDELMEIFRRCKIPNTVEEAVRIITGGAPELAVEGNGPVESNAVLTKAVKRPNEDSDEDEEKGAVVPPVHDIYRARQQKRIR
T1 sequence 3: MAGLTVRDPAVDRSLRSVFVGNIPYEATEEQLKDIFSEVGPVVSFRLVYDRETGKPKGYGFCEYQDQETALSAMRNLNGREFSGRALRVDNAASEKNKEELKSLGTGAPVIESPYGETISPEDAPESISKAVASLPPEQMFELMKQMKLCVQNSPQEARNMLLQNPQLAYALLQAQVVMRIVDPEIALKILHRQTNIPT

[2] = biological target: T1, CstF-50;CstF-77ΔN;CstF-64RH; remark: listed apart in the source
CstF-77ΔN;CstF-64RH [3] = biological target: T2, CstF-77ΔN;CstF-64RH (Homo sapiens;Homo sapiens, UniProt Q12996;P33240 241-717;1-199, del1-240|)
T2 sequence 1: T1 sequence 2
T2 sequence 2: T1 sequence 3

CstF-77ΔN;CstF-64RH [4] = biological target: T2, CstF-77ΔN;CstF-64RH; remark: listed apart in the source
[5] = biological target: T1, CstF-50;CstF-77ΔN;CstF-64RH; remark: listed apart in the source
CstF-64 RRM = biological target: T3, CstF-64 RRM (Homo sapiens, UniProt P33240 16-94)
T3 sequence: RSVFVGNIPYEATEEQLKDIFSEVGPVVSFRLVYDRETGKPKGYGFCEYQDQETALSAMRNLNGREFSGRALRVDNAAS

CstF-77ΔN;CstF-64RH [6] = biological target: T2, CstF-77ΔN;CstF-64RH; remark: listed apart in the source
[7] = biological target: T1, CstF-50;CstF-77ΔN;CstF-64RH; remark: listed apart in the source

Binder: ACACACACACACAC (ssRNA) [AC14]
- binding result [1]: no binding

Binder: GUGUGUGU (ssRNA) [GU8]
- binding signal [2]: ~2.5 fold tighter than GU6

Binder: GUGUGACCCUUUUU (ssRNA) [UUUUU-containing RNA]
- Kd (CstF-77ΔN;CstF-64RH [3]): ~3.7 µM

Binder: GUGUGUGUGUGUGU (ssRNA) [GU14]
- Kd (CstF-77ΔN;CstF-64RH [4]): ~0.16 µM
- Kd [5]: ~0.12 µM
- Kd (CstF-64 RRM): ~2.5 µM

Binder: GUGUGUGUGU (ssRNA) [GU10]
- binding result (CstF-77ΔN;CstF-64RH [6]): binds
- Kd [7]: ~0.5 µM
